Reference: patent US20130156779A1 (GlaxoSmithKline, published 2013)
Residue numbers refer to the chain shown, from its start. Values belong to the binder of their own block, whether it stands above or below them.

Columns and labels:
[1] = target: T1, Full-length human HER3 extracellular domain (ECD) (human, UniProt P21860 20-643); experiment: BIACORE 3000 SPR, mAb captured by anti-human Fc, ECD as analyte, 25 C
T1 construct: also called human HER3 ECD; HER-3 ECD full length
Experimental: The binding kinetics of these antibodies for was assessed using a BIACORE™ 3000. Antibodies were captured on a CM5 biosensor chip to which an immobilized anti-human IgG (Fc specific) BIACORE™ (GE Healthcare cat# BR-1008-39) monoclonal antibody had been conjugated using supplied coupling buffer (9000 RU). Full-length human HER3 ECD concentrations were injected for 120s at a flow rate of 30 ul/min. Biosensor chips were regenerated as described in Example 1. Kinetics were determined by global fitting of data to the 1:1 Langmuir model using BIACORE™ Evaluation software. Analytical runs were carried out at 25° C. using FIBS-EP as the running buffer.
Buffer cycle and double referencing were performed as described in Example 1; and 5) Regenerate biosensor chips with BIACORE™ optimized buffers.

[2] = target: T1, Full-length human HER3 extracellular …; experiment: affinity summary table, method not given
[3] = target: T2, Human HER3 ECD domain III (human, UniProt P21860 330-495); experiment: affinity summary table, method not given
T2 construct: also called D3; Domain 3
T2 sequence (P21860 330-495): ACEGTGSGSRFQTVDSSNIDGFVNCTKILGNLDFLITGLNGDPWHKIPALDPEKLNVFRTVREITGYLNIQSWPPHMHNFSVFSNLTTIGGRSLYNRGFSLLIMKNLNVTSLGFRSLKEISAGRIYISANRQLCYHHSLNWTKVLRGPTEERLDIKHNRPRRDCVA

T1 sequence (P21860 20-643): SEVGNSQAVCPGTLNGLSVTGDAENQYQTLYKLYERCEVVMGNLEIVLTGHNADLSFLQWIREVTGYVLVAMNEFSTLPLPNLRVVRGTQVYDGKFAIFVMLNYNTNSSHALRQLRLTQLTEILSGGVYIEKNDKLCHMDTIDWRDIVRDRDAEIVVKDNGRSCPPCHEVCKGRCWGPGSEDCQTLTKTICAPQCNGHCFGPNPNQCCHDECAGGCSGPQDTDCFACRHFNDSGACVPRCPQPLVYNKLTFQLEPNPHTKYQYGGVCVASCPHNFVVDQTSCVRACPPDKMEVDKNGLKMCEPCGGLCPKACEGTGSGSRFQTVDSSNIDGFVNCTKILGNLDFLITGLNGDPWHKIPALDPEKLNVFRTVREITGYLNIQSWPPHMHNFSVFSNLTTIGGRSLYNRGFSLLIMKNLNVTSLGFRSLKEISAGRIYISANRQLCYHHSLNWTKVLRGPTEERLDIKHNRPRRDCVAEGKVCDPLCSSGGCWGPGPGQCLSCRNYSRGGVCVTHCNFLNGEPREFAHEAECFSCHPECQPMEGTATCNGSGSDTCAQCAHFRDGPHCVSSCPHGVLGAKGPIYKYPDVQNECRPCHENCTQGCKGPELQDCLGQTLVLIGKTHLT

B1: 1D9 H6L0 RR antibody (antibody, V domains shown)
VH: QVQLVQSGAEVKKPGASVKVSCKASGYTFTSYWMHWVRQAPGQGLEWMGVIDPSDGYSHYNQKFKGKVTLTVDTSISTAYMELSRLRSDDTAVYYCAGGLAGTLDYWGQGTTVTVSS
VL: DIQMTQSPSSLSASVGDRVTITCRSSQSIVHSSGNTYLQWYQQKPGKAPKLLIYKVSNRFSGVPSRFSGSGSGTDFTLTISSLQPEDFAVYYCFQGSHVPWTFGQGTKLEIKR
notes: Humanized RR variant
- Kd [1]: 7.51 nM
- koff [1]: 0.00366 s⁻¹
- kon [1]: 487000 M⁻¹ s⁻¹

B2: 1D9 H2L2 RR antibody (antibody, V domains shown)
VH: B1 VH with K67R, L70M, V72R
VL: B1 VL with Y41F
notes: Humanized RR variant
- Kd [1]: 13.4 nM
- koff [1]: 0.00444 s⁻¹
- kon [1]: 331000 M⁻¹ s⁻¹

B3: 1D9 H0L7 RR antibody (antibody, V domains shown)
VH: B1 VH with K67R, L70M, V72R, G98R
VL: DVVMTQSPLSLPVTLGQPASISCRSSQSIVHSSGNTYLQWFQQRPGQSPRRLISKVSNRFSGVPDRFSGSGSGTDFTLKISRVEAEDVGVYYCFQGSHVPWTFGQGTKLEIKR
notes: Humanized RR variant; captured by anti-human Fc
- Kd [1]: 59.5 nM
- koff [1]: 0.00195 s⁻¹
- kon [1]: 32700 M⁻¹ s⁻¹

B6: 1D9 H6L3 RR antibody (antibody, V domains shown)
VH: B1 VH
VL: B1 VL with I2V
notes: Humanized RR variant
- Kd [1]: 3.91 nM
- koff [1]: 0.00302 s⁻¹
- kon [1]: 773000 M⁻¹ s⁻¹

B7: 1D9 H6L4 RR antibody (antibody, V domains shown)
VH: B1 VH
VL: B1 VL with Q3L
- Kd [1]: 7.89 nM
- koff [1]: 0.0041 s⁻¹
- kon [1]: 519000 M⁻¹ s⁻¹

B8: 1D9 H6L9 RR antibody (antibody, V domains shown)
VH: B1 VH
VL: B3 VL with R50K, R51L
notes: Humanized RR variant
- Kd [1]: 3.35 nM
- koff [1]: 0.00223 s⁻¹
- kon [1]: 665000 M⁻¹ s⁻¹

B13: 15D5 H3L1 antibody (antibody, V domains shown)
VH: QVQLVQSGAEVKKPGASVKVSCKASGYTFTDYNMNWVRQAPGQGLEWMGGINPNYGTTVYNQKFKGKATLTVDQSISTAYMELSRLRSDDTAVYYCARMTTIVPFDYWGQGTTVTVSS
VL: DIQMTQSPSSLSASVGDRVTITCRASQDISNYLNWYQQKPGKAPKLLIYYTSTLHSGVPSRFSGSGSGTDYTFTISSLQPEDIATYYCQQGYTLPWTFGGGTKVEIKR
notes: Humanized 15D5 variant
- Kd [1]: 4.21 nM
- koff [1]: 0.000171 s⁻¹
- kon [1]: 40500 M⁻¹ s⁻¹

B17: 15D5 H2L2 antibody (antibody, V domains shown)
VH: B13 VH with R38K, M48I
VL: B13 VL with F73L, I83F, G100Q, V104L
notes: Humanized 15D5 variant
- Kd [1]: 12.8 nM
- koff [1]: 0.00407 s⁻¹
- kon [1]: 317000 M⁻¹ s⁻¹

More lines, in order of falling Kd [1], values ahead:

- Kd [1]: 95.8 nM
- koff [1]: 0.00292 s⁻¹
- kon [1]: 30400 M⁻¹ s⁻¹
B4: 1D9 H3L6 RR antibody (antibody, V domains shown)
VH: B1 VH with L70M, V72R, G98R
VL: B3 VL with S54Y

- Kd [1]: 59.4 nM
- koff [1]: 0.00316 s⁻¹
- kon [1]: 53300 M⁻¹ s⁻¹
B5: 1D9 H3L2 RR antibody (antibody, V domains shown)
VH: B1 VH with L70M, V72R, G98R
VL: B1 VL with Y41F
notes: Humanized RR variant

- Kd [1]: 38.1 nM
- koff [1]: 0.0144 s⁻¹
- kon [1]: 377000 M⁻¹ s⁻¹
B9: 1D9 H0L9 RR antibody (antibody, V domains shown)
VH: B1 VH with K67R, L70M, V72R, G98R
VL: B3 VL with R50K, R51L
notes: Humanized RR variant; also called 1D9 HOL9 RR antibody

- Kd [1]: 24.7 nM
- koff [1]: 0.000935 s⁻¹
- kon [1]: 37900 M⁻¹ s⁻¹
B18: 15D5 H4L3 (antibody, V domains shown)
VH: B13 VH with A68V, Q74T
VL: B13 VL with Y71F, F73L, I83F, G100Q, V104L
notes: To be rechecked

- Kd [1]: 10 nM
- koff [1]: 0.000345 s⁻¹
- kon [1]: 34400 M⁻¹ s⁻¹
B15: 15D5 H1L3 antibody (antibody, V domains shown)
VH: B13 VH with V2F, T28S, R38K, M48I
VL: B13 VL with Y71F, F73L, I83F, G100Q, V104L
notes: Humanized 15D5 variant; also called 15D5 HIL3 antibody

- Kd [1]: 8.72 nM
- koff [1]: 0.000367 s⁻¹
- kon [1]: 42100 M⁻¹ s⁻¹
B14: 15D5 H3L3 antibody (antibody, V domains shown)
VH: B13 VH
VL: B13 VL with Y71F, F73L, I83F, G100Q, V104L
notes: also called 15D5 H31.3 antibody

- Kd [1]: 8.7 nM
- koff [1]: 0.000365 s⁻¹
- kon [1]: 41900 M⁻¹ s⁻¹
B19: 15D5 H2L1 antibody (antibody, V domains shown)
VH: B13 VH with R38K, M48I
VL: B13 VL
notes: Humanized 15D5 variant

- Kd [1]: 7.19 nM
- koff [1]: 0.000267 s⁻¹
- kon [1]: 37100 M⁻¹ s⁻¹
B16: 15D5 H1L1 antibody (antibody, V domains shown)
VH: B13 VH with V2F, T28S, R38K, M48I
VL: B13 VL

- Kd [1]: 7.02 nM
- koff [1]: 0.00487 s⁻¹
- kon [1]: 694000 M⁻¹ s⁻¹
B11: 1D9 H6L6 RR antibody (antibody, V domains shown)
VH: B1 VH
VL: B3 VL with S54Y
notes: To be rechecked

- Kd [1]: 6.87 nM
- koff [1]: 0.00371 s⁻¹
- kon [1]: 540000 M⁻¹ s⁻¹
B12: 1D9 H6L5 RR antibody (antibody, V domains shown)
VH: B1 VH
VL: B1 VL with I2V, Q3L, Y41F, Y54S
notes: also called 1D9 116L5 RR antibody

- Kd [2]: 4.1 nM
- Kd [3]: 0.018 nM
- Kd [1]: 3.96 nM
- koff [1]: 0.0017 s⁻¹
- kon [1]: 430000 M⁻¹ s⁻¹
B10: Humanized 1D9 RR antibody (H6L2) (antibody, human IgG1, V domains shown)
VH: B1 VH
VL: DIQMTQSPSSLSASVGDRVTITCRSSQSIVHSSGNTYLQWFQQKPGKAPKLLIYKVSNRFSGVPSRFSGSGSGTDFTLTISSLQPEDFAVYYCFQGSHVPWTFGQGTKLEIKRR
notes: Human IgG1; also called 1D9 H6L2 RR antibody; h1D9 RR wt
